Measurements as given in the supplement of paper PMC10567573.

B1: TFE3 (parent)
chain: ELPNIKREISETEAKALLKERQKK
B2: FUT8 (parent)
chain: YPSYKVREKIETVKYPTYPEAEK

Variants of: B1
Experiment: protein stability index of a GFP-peptide fusion (GPS, HEK-293T) (PSI 1-6); higher = more stable
Details: c terminus: a fixed tail appended
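Note: lentivirally expressed fusions sorted by FACS into six bins by GFP to DsRed ratio, PSI derived from sequencing read proportions per bin multiplied by bin number.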

Variant | protein stability index
E8K | 4.06
N4S | 3.23
Q22S | 2.73
K6R | 2.02
E20P | 2.52
K24D | 2.91
A14I | 2.46
K19A | 2.7
I5N | 4.22
L2T | 4.71
I9K | 4.95
K6L | 2.83
K23C | 3.09
K19F | 2.65
A16S | 2.87
A14W | 2.69
I9W | 4.13
R21G | 2.28
K19T | 2.42
E8L | 3.6
Q22E | 2
K19Q | 2.83

Variant | protein stability index
K19W | 2.29
K6W | 2.01
T12M | 4.26
E1A | 3.19
K24S | 2.28
E13Q | 4.34
K15M | 2.41
A14C | 2.48
I5W | 3.93
K15H | 2.94
K6Q | 2.45
I5A | 4.81
L18M | 2.05
E1W | 3.01
S10G | 3
S10V | 3.62
I5D | 5.33
R7D | 2.95
L18Y | 2.92
E1F | 2.21
S10N | 3
T12N | 4.46

Variant | protein stability index
T12W | 3.31
K24V | 2.96
L2F | 4.29
R21C | 2.43
K24N | 3.05
E1P | 4.81
L18W | 2.37
K15I | 2.21
E8I | 3.39
L18N | 2.4
L18F | 2.28
S10Y | 2.35
S10I | 3.13
Q22K | 2.35
N4P | 3.76
Q22L | 2.24
R7N | 2.58
L17F | 2.38
E8S | 3.69
R7M | 2.63
K23Q | 2.45
K15V | 2.02

Variant | protein stability index
P3Y | 3.04
Q22I | 2.52
E13H | 4.65
I9N | 3.19
R7F | 2.44
N4T | 3.33
K23I | 2.34
E20S | 2.67
E13R | 3.43
E20Y | 2.5
Q22T | 2.52
E11A | 2.89
P3G | 3.5
R21P | 2.32
K19N | 2.57
E13I | 3.33
E8P | 4.31
E8C | 3.4
K23P | 2.35
K15Q | 2.46
E1N | 2.75
S10T | 2.59

Variant | protein stability index
R7T | 3.51
K23V | 2.61
A16I | 3.16
K19I | 2.84
R7A | 2.55
I5M | 2.23
E8F | 3.52
A16P | 4.2
P3W | 2.43
T12K | 3.85
K24L | 2.53
K24G | 2.76
R7L | 2.68
T12V | 4.04
E1L | 2.29
E13T | 4.34
K23G | 2.42
E8A | 2.49

Variants of: B2
Experiment: as above
Details: c terminus: native

Variant | protein stability index
Y1A | 5.42
Y1C | 4.41
Y1D | 5.3
Y1E | 4.99
Y1F | 4.75
Y1G | 5.08
Y1H | 4.98
Y1I | 5.15
Y1L | 5.16
Y1M | 4.7
Y1N | 5.08
Y1P | 5.38
Y1Q | 4.96
Y1R | 4.58
Y1S | 4.96
Y1T | 4.92
Y1V | 4.97
Y1W | 4.46
P2A | 3.58
P2C | 3.11
P2D | 4.48
P2E | 4.52
P2F | 3.51
P2G | 4.05
P2H | 3.01
P2I | 2.91

Variant | protein stability index
P2K | 4.35
P2L | 3.84
P2M | 3.58
P2N | 3.9
P2Q | 2.5
P2R | 4.76
P2S | 4.78
P2T | 3.35
P2V | 2.75
P2W | 3.32
P2Y | 3.73
S3A | 4.02
S3C | 4.08
S3D | 4.69
S3E | 4.18
S3F | 3.25
S3G | 3.92
S3H | 4.39
S3I | 4.44
S3K | 4.78
S3L | 4.7
S3M | 4.08
S3N | 4.3
S3P | 3.35
S3R | 3.79
S3T | 4.19

Variant | protein stability index
S3V | 3.66
S3W | 3.02
S3Y | 4.12
Y4A | 4.86
Y4C | 4.13
Y4D | 4.57
Y4E | 4
Y4F | 4.64
Y4G | 5.38
Y4H | 4.93
Y4I | 4.16
Y4K | 5.03
Y4L | 4.68
Y4M | 4.88
Y4N | 4.47
Y4P | 5.02
Y4Q | 4.52
Y4R | 4.29
Y4S | 4.59
Y4T | 4.91
Y4V | 4.52
Y4W | 3.66
K5A | 3.92
K5C | 4.2
K5D | 4.72
K5E | 5.15

Variant | protein stability index
K5F | 2.91
K5G | 4.29
K5H | 4.34
K5I | 4.45
K5L | 4.12
K5M | 4.45
K5N | 4.81
K5P | 4.61
K5Q | 4.68
K5R | 4.32
K5S | 4.54
K5T | 4.6
K5V | 4.16
K5W | 2.49
K5Y | 3.62
V6A | 4.67
V6C | 3.91
V6D | 4.76
V6E | 4.43
V6F | 2.83
V6G | 4.18
V6H | 4.58
V6I | 3.89
V6K | 4.55
V6L | 4.69
V6M | 3.86

Variant | protein stability index
V6N | 4.62
V6P | 4.62
V6Q | 4.13
V6R | 4.36
V6S | 4.48
V6T | 4.25
V6Y | 4.15
R7A | 4.54
R7C | 3.76
R7D | 4.67
R7E | 4.7
R7F | 2.52
R7G | 4.7
R7H | 3.84
R7I | 3.73
R7K | 4.16
R7L | 4.48
R7M | 4.48
R7N | 4.59
R7P | 4.67
R7Q | 4.45
R7S | 4.49
R7T | 3.96
R7V | 3.85
R7W | 2.79
R7Y | 3.6

Variant | protein stability index
E8A | 3.96
E8C | 2.62
E8D | 4.26
E8F | 2.02
E8G | 3.92
E8H | 4.28
E8I | 2.62
E8K | 3.59
E8L | 1.99
E8M | 2.69
E8N | 4.27
E8P | 3.72
E8Q | 4.01
E8R | 3.74
E8S | 3.57
E8T | 3.43
E8V | 1.75
E8W | 2.13
E8Y | 2.28
K9A | 4.31
K9C | 4.43
K9D | 4.14
K9E | 4.5
K9F | 2.64
K9G | 4.12
K9H | 3.62

Variant | protein stability index
K9I | 3.1
K9L | 2.91
K9M | 4.24
K9N | 4.38
K9P | 4.74
K9Q | 4.25
K9R | 3.98
K9S | 4.28
K9T | 4.44
K9V | 3.23
K9W | 1.99
K9Y | 2.56
I10A | 4.19
I10C | 4.21
I10D | 4.71
I10E | 4.61
I10F | 4.36
I10H | 4.27
I10K | 4.57
I10L | 4.28
I10M | 4.35
I10N | 4.87
I10P | 4.09
I10Q | 4.17
I10R | 4.56
I10S | 4.46

Variant | protein stability index
I10T | 4.97
I10V | 4.46
I10W | 2.87
I10Y | 4.29
E11A | 4.3
E11C | 3.91
E11F | 3.15
E11G | 3.59
E11H | 3.8
E11I | 3.34
E11K | 4.32
E11L | 4.01
E11M | 3.46
E11N | 3.1
E11P | 4.12
E11Q | 4.27
E11S | 4.07
E11T | 3.5
E11V | 3.59
E11Y | 3.44
T12A | 3.92
T12C | 4.17
T12D | 4.57
T12E | 4.33
T12F | 3.06
T12G | 4.01

Variant | protein stability index
T12H | 3.25
T12K | 4.71
T12L | 3.14
T12N | 3.62
T12P | 4.49
T12Q | 4.94
T12R | 4.05
T12S | 3.91
T12V | 2.14
T12W | 3.21
T12Y | 4.15
V13A | 4.7
V13C | 4.12
V13D | 4.64
V13E | 4.79
V13F | 3.77
V13G | 4.66
V13H | 3.97
V13I | 4.29
V13K | 4.62
